In article PMC7301157:

Target: Clb3-Cdk1 (S. cerevisiae) (UniProt P24870)
Sequence of UniProt P24870 (P24870 whole entry, chain 1 of 2): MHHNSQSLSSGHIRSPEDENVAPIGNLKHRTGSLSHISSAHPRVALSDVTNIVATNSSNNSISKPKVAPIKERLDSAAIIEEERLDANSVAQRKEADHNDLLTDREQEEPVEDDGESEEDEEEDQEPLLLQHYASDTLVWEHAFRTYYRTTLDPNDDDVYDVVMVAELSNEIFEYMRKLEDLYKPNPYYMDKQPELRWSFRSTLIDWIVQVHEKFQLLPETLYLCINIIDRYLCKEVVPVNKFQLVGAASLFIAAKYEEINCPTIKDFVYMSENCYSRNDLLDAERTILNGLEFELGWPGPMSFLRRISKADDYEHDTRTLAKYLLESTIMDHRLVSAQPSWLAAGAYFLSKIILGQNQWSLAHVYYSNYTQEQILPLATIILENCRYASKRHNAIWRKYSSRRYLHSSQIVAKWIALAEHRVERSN
Sequence of UniProt P24870 (P00546 whole entry, chain 2 of 2, further chain): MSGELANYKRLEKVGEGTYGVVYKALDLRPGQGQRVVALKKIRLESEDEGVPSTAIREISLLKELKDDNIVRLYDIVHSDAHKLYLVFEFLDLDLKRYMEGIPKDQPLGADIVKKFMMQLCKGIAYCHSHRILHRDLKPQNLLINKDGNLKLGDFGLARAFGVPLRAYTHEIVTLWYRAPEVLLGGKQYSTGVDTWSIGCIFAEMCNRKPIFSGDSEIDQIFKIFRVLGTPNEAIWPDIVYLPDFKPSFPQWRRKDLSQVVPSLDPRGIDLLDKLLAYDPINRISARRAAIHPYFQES

- increase of the phosphorylation rate of the model substrate by Clb3-Cdk1: 65 fold
Substance: Sic1(1–33 SPxA) model substrate with PPKGPNF (from UniProt P38634 1-33)
